Positions count from the first letter of the chain named. Blank lines part the entries; values can stand above or below the binder they belong to.
How the values were obtained:
[1] = target: T1, Ubiquitin Specific Peptidase 11 (USP11) (human, UniProt P51784 1-963, biotin (biotinylated USP11 in the yeast display assays)); assay: SPR
[2] = target: T1, Ubiquitin Specific Peptidase 11 (USP11); assay: SPR; remark: listed apart in the source

T1 sequence (P51784 whole entry): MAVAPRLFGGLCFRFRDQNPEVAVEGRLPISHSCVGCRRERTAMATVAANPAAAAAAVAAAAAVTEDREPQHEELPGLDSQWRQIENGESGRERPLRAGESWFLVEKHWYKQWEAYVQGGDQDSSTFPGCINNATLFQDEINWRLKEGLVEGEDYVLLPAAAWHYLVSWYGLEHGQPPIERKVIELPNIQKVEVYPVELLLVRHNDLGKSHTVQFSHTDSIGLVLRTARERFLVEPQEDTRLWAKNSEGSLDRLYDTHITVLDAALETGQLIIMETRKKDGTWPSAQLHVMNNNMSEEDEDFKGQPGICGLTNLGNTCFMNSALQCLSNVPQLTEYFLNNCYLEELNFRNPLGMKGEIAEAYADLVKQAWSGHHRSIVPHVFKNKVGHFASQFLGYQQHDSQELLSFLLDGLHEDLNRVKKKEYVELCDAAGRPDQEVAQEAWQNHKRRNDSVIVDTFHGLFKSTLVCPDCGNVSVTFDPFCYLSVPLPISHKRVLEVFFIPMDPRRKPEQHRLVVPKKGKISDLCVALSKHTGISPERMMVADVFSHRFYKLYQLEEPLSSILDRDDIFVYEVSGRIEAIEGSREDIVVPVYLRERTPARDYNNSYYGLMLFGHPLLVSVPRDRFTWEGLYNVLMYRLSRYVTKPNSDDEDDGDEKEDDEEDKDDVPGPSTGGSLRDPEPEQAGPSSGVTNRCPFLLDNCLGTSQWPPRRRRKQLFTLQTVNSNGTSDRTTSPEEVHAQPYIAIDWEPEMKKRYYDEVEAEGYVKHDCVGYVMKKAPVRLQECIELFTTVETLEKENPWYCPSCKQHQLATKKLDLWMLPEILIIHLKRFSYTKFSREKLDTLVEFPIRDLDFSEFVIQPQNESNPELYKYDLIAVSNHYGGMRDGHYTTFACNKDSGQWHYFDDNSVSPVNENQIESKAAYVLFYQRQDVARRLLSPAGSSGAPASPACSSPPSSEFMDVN

Kd [1]: 160 nM
koff [2]: 0.0038 s⁻¹
B1: scTGP USP11-C3, purified protein (scFv, V domains shown)
VH: QVQLVQSGAEVKKPGSSVKVSCKASGGTFSSYAISWVRQAPGQGLEWMGGIIPIFGTANYAQKFQGRVTITADESTSTAYMELSSLRSEDTAVYYCAREGGIGLSGWLDPWGQGTLVTVSS
VL: EIVLTQSPGTLSLSPGERATLFCRASQSVSSNLAWYQQKPGQAPRLLIYGASTRATGIPARFSGSGSGTEFTLTISSLQSEDFAVYYCQQYDDWPLTFGGGTKVDIK

Kd [1]: 48 nM
koff [2]: 0.00089 s⁻¹
B2: scTGP USP11-B6, purified protein (scFv, V domains shown)
VH: B1 VH with Q65L
VL: EIVMTQTPGTLCLSPGERATLSCRASQSVSNNNLAWYQQKPGQAPRLLIFGASNRATGIPDRFSGSGSGTDFTLTISSLQSEDFAVYYCQQYDSWPLTFGGGTKLEIK
